Measurements reported in US20090170194A1 (GOVERNORS OF THE UNIVERSITY OF ALBERTA, published 2009).

Tests used:
[1] = molecular target: the molecule itself; test: self-association (homodimer); gel filtration chromatography (FIG. 4)
Source text: (§1) FIG. 4: Characterization of mTFP1 by Gel Filtration Chromatography. Gel filtration chromatography elution profile with detection at either 450 nm or 550 nm. The upper profile is a co-injection of dTFP0.2 and mCherry (Shaner, 2004) (a red monomer), the middle profile is dTomato (Shaner, 2004) (a red dimer) and mTFP1, and the lower profile is mTFP1 alone. The small 450 nm peak at the dimer elution volume is due to the weak absorbance of dTomato at this wavelength.
(§2) The non-oligomeric structure of mTFP variants was determined by gel filtration chromatography on a HiLoad 16/60 Superdex 75 pg gel filtration column. Samples of the dimeric dTomato and the monomeric mCherry proteins (Shaner, 2004) were expressed and purified as described above and used as size standards. The AKTA basic liquid chromatography system (GE Healthcare) can monitor multiple wavelengths simultaneously. Purified TFP variants were mixed with either dTomato or mcherry and their respective elution profiles monitored separately at 450 nm and 550 nm, respectively.

[2] = molecular target: the molecule itself; test: gel filtration chromatography (self-association)
Protocol: as §2

[3] = molecular target: the molecule itself; test: gel filtration chromatography with dTomato (dimer) and mCherry (monomer) as size standards (self-association)
Source text: as §1, §2

B1: dTFP0.2 (other)
chain: MVSKGEETTMGVIKPDMKIKLKMEGNVNGHAFVIEGEGEGKPYDGTNTVNLEVKEGAPLPFSYDILSNAFQYGNRAFTKYPDDIANYFKQSFPEGYSWERTMTFEDKGIVKVKSDISMEEDSFIYEIRLKGKNFPPNGPVMQKKTLKWEPSTEILYVRDGVLVGDISHSLLLEGGGHYRCDFKTIYKAKKVVKLPDYHFVDHRIEILNHDKDYNKVTLYENAVARYSLLPPQAGMDELYK
notes: dTFP0.1 with D81N and S226P; Vector His tag probably present; also called dTFP0.20
binding result [1]: binds

B2: mTFP0.3 (other)
chain: MVSKGEETTMGVIKPDMKIKLKMEGNVNGHAFVIEGEGEGKPYDGTNTVNLEVKEGAPLPFSYDILSNAFQYGNRAFTKYPDDIANYFKQSFPEGYSWERTMTFEDKGIVKVKSDISMEEDSFIYEIRLKGKNFPPNGPVMQKKTLKWEPSTEILYVRDGVLVGDIKHKLLLEGGGHYRCDFKTIYKAKKVVKLPDYHFVDHRIEILNHDKDYNKVTLYENAVARYSLLPPQAGMDELYK
notes: dTFP0.2 with S162K and S164K; reported as a monomer; Substitution positions follow the DsRed-consistent numbering; Vector His tag probably present
binding result [2]: no binding

B3: mTFP1 (other)
chain: MVSKGEETTMGVIKPDMKIKLKMEGNVNGHAFVIEGEGEGKPYDGTNTINLEVKEGAPLPFSYDILTTAFAYGNRAFTKYPDDIPNYFKQSFPEGYSWERTMTFEDKGIVKVKSDISMEEDSFIYEIHLKGENFPPNGPVMQKKTTGWDASTERMYVRDGVLKGDVKHKLLLEGGGHHRVDFKTIYRAKKAVKLPDYHFVDHRIEILNHDKDYNKVTVYESAVARNSTDGMDELYK
notes: Engineered monomeric teal fluorescent protein derived from Clavularia cFP484; Expressed from pBAD/HisB and purified on Ni-NTA; also called mTFP1.0
binding result [3]: no binding
